US10450596

Molecular target: histone H3 trimethylated at lysine 9 (H3K9me3) in bulk calf thymus histones (Sigma)

B1: GST-tagged KDM4C (BPS Bioscience) (protein)
chain: EVAEVESPLNPSCKIMTFRPSMEEFREFNKYLAYMESKGAHRAGLAKVIPPKEWKPRQCYDDIDNLLIPAPIQQMVTGQSGLFTQYNIQKKAMTVKEFRQLANSGKYCTPRYLDYEDLERKYWKNLTFVAPIYGADINGSIYDEGVDEWNIARLNTVLDVVEEECGISIEGVNTPYLYFGMWKTTFAWHTEDMDLYSINYLHFGEPKSWYAIPPEHGKRLERLAQGFFPSSSQGCDAFLRHKMTLISPSVLKKYGIPFDKITQEAGEFMITFPYGYHAGFNHGFNCAESTNFATVRWIDYGKVAKLCTCRKDMVKISMDIFVRKFQPDRYQLWKQGKDIYTIDHTKPTPASTPEVKAWLQRRRKVRKASRS
in vitro histone demethylation assay; H3K9me3 assessed by Western blot: Addition of purified KDM4C to histone substrates resulted in demethylation of H3K9me3
